Experiment [1] addresses S. pneumoniae IgA1P-E1605A (Streptococcus pneumoniae) (UniProt Q59947). Description: ELISA; metallo-IgA1P mutant coated on Nunc MaxiSorp plate (20 nM by the methods, 100 nM by the legend of Fig. 2d), blocked 2 h at room temperature, human IgA1 with kappa LC added for 2 h, detected with anti-human IgA HRP and ABTS; estimated Kd.
In experiment [2] the target is G. haemolysans IgA1P-E1848A (residues 907-2201) (Gemella haemolysans). Described as above.

The term Kd denotes the constant that tells how readily two partners part at equilibrium. In the case of “Human IgA1 with kappa LC (monomeric) (antibody)”, the Kd was 798 µM in experiment [1] and 1090 µM in experiment [2].

The values are drawn from article PMC9637739.
